Measurements from patent US9187553.

Biological target: recombinant human FceRIa D2/D1 subunit (human) (UniProt P12319)
Assay: ELISA, IgE captured by His-tagged receptor on Ni-treated plate

Chain of UniProt P12319 (P12319 26-205): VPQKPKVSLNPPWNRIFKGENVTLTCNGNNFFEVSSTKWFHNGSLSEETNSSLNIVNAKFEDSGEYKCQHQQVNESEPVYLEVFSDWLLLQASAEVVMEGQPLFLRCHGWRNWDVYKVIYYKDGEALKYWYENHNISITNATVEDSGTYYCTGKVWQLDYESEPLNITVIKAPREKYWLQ

OD signal at 50 ng/ml: 1.2 OD
Substance: human myeloma IgE (BED) (antibody)
